Blank lines part the entries; values can stand above or below the binder they belong to.
Assays:
[1] = target: the molecule itself; experiment: SDS-PAGE under non-reducing conditions; 2 µg purified fusion protein, 8% SDS-PAGE with and without 2-ME, Coomassie staining; disulfide-linked dimer
[2] = target: T1, mouse TNFR2-Fc (mouse, UniProt P25119 23-258); experiment: ELISA; mouse TNFR1-Fc or TNFR2-Fc coated at 1 µg/ml in PBS; fusion proteins in 2% skim milk powder in PBS, 1 h at RT; detected with anti-TNF (HP8001) or anti-his-tag antibody and HRP-conjugated secondary antibody; details: both partners purified
T1 construct: mouse TNF receptor 2 (TNFR2) as an Fc fusion protein; neither the source of the protein nor the kind of Fc is told; Also used here as the TNFR2 of the functional rows (BV-2 cells, T cells, sTNFR2); also called mTNFR2-Fc
T1 sequence (looked up): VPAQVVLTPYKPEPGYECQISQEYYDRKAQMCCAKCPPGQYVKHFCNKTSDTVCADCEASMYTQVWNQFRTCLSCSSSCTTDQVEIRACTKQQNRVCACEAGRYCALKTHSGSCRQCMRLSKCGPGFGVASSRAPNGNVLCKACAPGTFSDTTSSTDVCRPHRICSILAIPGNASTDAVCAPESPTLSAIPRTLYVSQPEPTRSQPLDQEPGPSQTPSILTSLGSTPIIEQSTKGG

[3] = target: T1, mouse TNFR2-Fc; experiment: quartz crystal microbalance; TNFR2-Fc chemically immobilised on a carboxyl sensor chip at high density (270 Hz); PBST (PBS, 0.1% Tween 20) pH 7.4, 37°C; analytes 2 to 32 nM; Kd = koff/kon assuming 1:1 binding; details: both partners purified
[4] = target: T2, mouse TNFR1-Fc (mouse, UniProt P25118 30-212); experiment: ELISA; mouse TNFR1-Fc or TNFR2-Fc coated at 1 µg/ml in PBS; fusion proteins in 2% skim milk powder in PBS, 1 h at RT; detected with anti-TNF (HP8001) or anti-his-tag antibody and HRP-conjugated secondary antibody; details: both partners purified
T2 construct: mouse TNF receptor 1 (TNFR1) as an Fc fusion protein; neither the source of the protein nor the kind of Fc is told; Also used here as the TNFR1 of the L929 functional rows; also called mTNFR1-Fc
T2 sequence (looked up): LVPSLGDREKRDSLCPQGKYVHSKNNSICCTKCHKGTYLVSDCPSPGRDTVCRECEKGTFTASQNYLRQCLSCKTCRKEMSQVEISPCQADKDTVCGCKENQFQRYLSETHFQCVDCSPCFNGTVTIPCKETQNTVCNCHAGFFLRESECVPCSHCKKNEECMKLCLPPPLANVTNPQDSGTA

EC50 [2]: 0.053 nM
Kd [3]: 0.89 nM
kon [3]: 589000 M⁻¹ s⁻¹
B1: IL2-EHD2-sc-mTNFR2 (ligand)
chain: APTSSSTSSSTAEAQQQQQQQQQQQQHLEQLLMDLQELLSRMENYRNLKLPRMLTFKFYLPKQATELKDLQCLEDELGPLRHVLDLTQSKSFQLEDAENFISNIRVTVVKLKGSDNTFECQFDDESATVVDFLRRWIAFCQSIISTSPQPTVKILQSSCDGGGHFPPTIQLLCLVSGYTPGTINITWLEDGQVMDVDLSTASTTQEGELASTQSELTLSQKHWLSDRTYTCQVTYQGHTFEDSTKKCAPVAHVVANHQVEEQLEWLSQRANALLANGMDLKDNQLVVPADGLYLVYSQVLFKGQGCPDYVLLTHTVSRFAISYQEKVNLLSAVKSPCPKDTPEGAELKPWYEPIYLGGVFQLEKGDQLSAEVNLPKYLNFRESGQVYFGVIALPVAHVVANHQVEEQLEWLSQRANALLANGMDLKDNQLVVPADGLYLVYSQVLFKGQGCPDYVLLTHTVSRFAISYQEKVNLLSAVKSPCPKDTPEGAELKPWYEPIYLGGVFQLEKGDQLSAEVNLPKYLNFRESGQVYFGVIALPVAHVVANHQVEEQLEWLSQRANALLANGMDLKDNQLVVPADGLYLVYSQVLFKGQGCPDYVLLTHTVSRFAISYQEKVNLLSAVKSPCPKDTPEGAELKPWYEPIYLGGVFQLEKGDQLSAEVNLPKYLNFRESGQVYFGVIAL
stoichiometry N [1]: 2

EC50 [2]: 0.031 nM
Kd [3]: 0.12 nM
kon [3]: 1.2e+06 M⁻¹ s⁻¹
B2: EHD2-sc-mTNFR2 (ligand)
chain: PTVKILQSSCDGGGHFPPTIQLLCLVSGYTPGTINITWLEDGQVMDVDLSTASTTQEGELASTQSELTLSQKHWLSDRTYTCQVTYQGHTFEDSTKKCAPVAHVVANHQVEEQLEWLSQRANALLANGMDLKDNQLVVPADGLYLVYSQVLFKGQGCPDYVLLTHTVSRFAISYQEKVNLLSAVKSPCPKDTPEGAELKPWYEPIYLGGVFQLEKGDQLSAEVNLPKYLNFRESGQVYFGVIALPVAHVVANHQVEEQLEWLSQRANALLANGMDLKDNQLVVPADGLYLVYSQVLFKGQGCPDYVLLTHTVSRFAISYQEKVNLLSAVKSPCPKDTPEGAELKPWYEPIYLGGVFQLEKGDQLSAEVNLPKYLNFRESGQVYFGVIALPVAHVVANHQVEEQLEWLSQRANALLANGMDLKDNQLVVPADGLYLVYSQVLFKGQGCPDYVLLTHTVSRFAISYQEKVNLLSAVKSPCPKDTPEGAELKPWYEPIYLGGVFQLEKGDQLSAEVNLPKYLNFRESGQVYFGVIAL
stoichiometry N [1]: 2

binding result [4]: binds
B3: soluble recombinant mouse TNF (ligand, UniProt P06804 80-235, looked up)
chain: LRSSSQNSSDKPVAHVVANHQVEEQLEWLSQRANALLANGMDLKDNQLVVPADGLYLVYSQVLFKGQGCPDYVLLTHTVSRFAISYQEKVNLLSAVKSPCPKDTPEGAELKPWYEPIYLGGVFQLEKGDQLSAEVNLPKYLDFAESGQVYFGVIAL
notes: soluble recombinant mouse tumor necrosis factor (TNF), wild type; Positive control; also called sTNF; wild-type soluble TNF

Source: article PMC6930692, “Superior Treg-Expanding Properties of a Novel Dual-Acting Cytokine Fusion Protein” (Frontiers in Pharmacology, 2019)
